Test results from the supplement of paper PMC6757056.
± gives the standard deviation of the averaged measurements.

B1: library; a variant is named by its letters at N, in order (parent)
chain: GCUGUCACCGGUGUAUUACCCUAGUGGUCGACCGGUCUGAUGAGUCUNNNNNNAGACGAAACAGC

Legend:
hypoxanthine [1] = variants of: B1; experiment: FACS-Seq fitted mean relative fluorescence mCherry/BFP without ligand (log10 relative fluorescence); ligand: hypoxanthine (xanthine aptamer); higher = higher reporter protein expression; conditions: HEK293T, ligand present: no
Procedure, shortened: (§1)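 After lentiviral transduction, HEK293T library cells bearing an mCherry ribozyme-switch reporter and an EF1α-BFP marker were enriched. They were then held for 48 h with or without ligand and sorted by mCherry/BFP into 6 bins, and each bin's genomic DNA was PCR-amplified, barcoded and MiSeq-sequenced. Fluorescence is expressed as a normalized fitted mean: the normal mean of log10(mCherry/BFP) bin counts, scaled to five spiked-in control ribozymes.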

hypoxanthine [2] = variants of: B1; experiment: normalized RNA/DNA level with ligand (relative to sTRSVctl = 100) (log10 (% of sTRSVctl)); ligand: hypoxanthine (xanthine aptamer); higher = less ribozyme self-cleavage, higher mRNA level; conditions: ligand concentration (+) RNA-Seq: 5 mM, HEK293T, reporter: mCherry (pCS4076), ligand present: yes
Procedure, shortened: (§2)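 Library plasmids encoding reporter-linked ribozyme switches (mCherry, or eGFP for some folinic acid experiments) were transfected into HEK293T at 4 µg per 6-well well. Ligand, when used, was added 1 h before transfection. Total RNA was extracted with EDTA 72 h later, then reverse-transcribed, amplified, barcoded and sequenced. RNA level was RNA reads over DNA reads, divided by a spiked-in non-cleaving control (or the top 25 sequences), ×100, log10; only sequences with ≥100 DNA reads were kept.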

hypoxanthine [3] = variants of: B1; experiment: normalized RNA/DNA level without ligand (relative to sTRSVctl = 100) (log10 (% of sTRSVctl)); ligand: hypoxanthine (xanthine aptamer); higher = less ribozyme self-cleavage, higher mRNA level; conditions: HEK293T, reporter: mCherry (pCS4076), ligand present: no
Procedure, shortened: as §2

hypoxanthine [4] = variants of: B1; experiment: FACS-Seq fitted mean relative fluorescence mCherry/BFP with ligand (log10 relative fluorescence); ligand: hypoxanthine (xanthine aptamer); ligand concentration (+) FACS-Seq: 5 mM; higher = higher reporter protein expression; conditions: HEK293T, ligand present: yes
Procedure, shortened: as §1

Variant | FACS-Seq fitted mean (log10) (hypoxanthine [1]) | normalized RNA/DNA level with ligand (log10) (hypoxanthine [2]) | normalized RNA/DNA level without ligand (log10) (hypoxanthine [3]) | FACS-Seq fitted mean (log10) (hypoxanthine [4])
CACACU | 0.146 ± 0.034 | 1.953 ± 0.0082 | 1.87 ± 0.036 | 0.266 ± 0.0029
UACACU | -0.295 ± 0.069 | 1.911 ± 0.006 | 1.9 ± 0.0044 | -0.34 ± 0.0052
AGACAU | 0.502 ± 0.023 | 1.907 ± 0.0038 | 1.755 ± 0.0087 | 0.538 ± 0.036
CAUGAC | -0.299 ± 0.099 | 1.937 ± 0.006 | 1.793 ± 0.017 | 0.254 ± 0.046
GGGCAG | 0.0036 ± 0.061 | 1.881 ± 0.013 | 1.5894 ± 0.0015 | 0.434 ± 0.012
ACAAAG | 0.343 ± 0.016 | 1.901 ± 0.0069 | 1.54 ± 0.028 | 0.696 ± 0.034
ACAAAC | 0.5372 ± 0.0045 | 1.93 ± 0.062 | 1.826 ± 0.017 | 0.517 ± 0.046
UGCCUG | 0.608 ± 0.0066 | 1.91 ± 0.1 | 1.73 ± 0.042 | 0.712 ± 0.07
ACGAUG | 0.311 ± 0.018 | 1.734 ± 0.013 | 1.23 ± 0.036 | 0.629 ± 0.079
AAAUGA | 0.89 ± 0.066 | 1.924 ± 0.0069 | 1.688 ± 0.0025 | 0.709 ± 0.13
AAAUGC | -0.0368 ± 0.059 | 1.92 ± 0.029 | 1.76 ± 0.026 | 0.173 ± 0.096
AGCGAC | -0.228 ± 0.049 | 1.93 ± 0.043 | 1.787 ± 0.00037 | 0.298 ± 0.021
AGCGAA | 0.534 ± 0.068 | 1.924 ± 0.017 | 1.6852 ± 0.00025 | 0.62 ± 0.014
AUGAAG | -0.113 ± 0.019 | 1.73 ± 0.031 | 1.13 ± 0.053 | 0.639 ± 0.0078
GAUGGU | 0.501 ± 0.024 | 1.95 ± 0.07 | 1.76 ± 0.022 | 0.748 ± 0.062
AAUGCG | -0.0193 ± 0.038 | 1.85 ± 0.03 | 1.42 ± 0.089 | 0.462 ± 0.044
AACAAG | 0.124 ± 0.013 | 1.85 ± 0.051 | 1.41 ± 0.098 | 0.462 ± 0.033
AACAAU | 0.434 ± 0.044 | 1.89 ± 0.023 | 1.74 ± 0.042 | 0.249 ± 0.16
AUACUA | 0.515 ± 0.014 | 1.9061 ± 0.00059 | 1.774 ± 0.001 | 0.512 ± 0.018
GUGGCG | 0.283 ± 0.0056 | 1.94 ± 0.02 | 1.608 ± 0.011 | 0.342 ± 0.023
UUCGAA | 0.708 ± 0.021 | 1.938 ± 0.0037 | 1.7 ± 0.045 | 0.716 ± 0.059
GGAUGG | 0.131 ± 0.02 | 1.85 ± 0.027 | 1.33 ± 0.034 | 0.472 ± 0.035
CAAUUU | -0.039 ± 0.03 | 1.932 ± 0.015 | 1.83 ± 0.034 | 0.406 ± 0.03
CUACAA | 0.07 ± 0.013 | 1.9 ± 0.013 | 1.79 ± 0.044 | -0.0643 ± 0.025

Variant | FACS-Seq fitted mean (log10) (hypoxanthine [1]) | normalized RNA/DNA level with ligand (log10) (hypoxanthine [2]) | normalized RNA/DNA level without ligand (log10) (hypoxanthine [3]) | FACS-Seq fitted mean (log10) (hypoxanthine [4])
AUGCCA | 0.0727 ± 0.02 | 1.91 ± 0.07 | 1.821 ± 0.018 | 0.158 ± 0.03
CAUUUC | 0.66 ± 0.057 | 1.92 ± 0.043 | 1.9 ± 0.069 | 0.774 ± 0.066
GACUAU | 0.185 ± 0.051 | 1.92 ± 0.077 | 1.829 ± 0.016 | 0.377 ± 0.004
GGCCGU | 0.465 ± 0.071 | 1.95 ± 0.034 | 1.945 ± 0.014 | 0.502 ± 0.0071
GCCCUG | -0.113 ± 0.029 | 1.873 ± 0.0091 | 1.49 ± 0.049 | 0.497 ± 0.092
UAAAAC | 0.723 ± 0.03 | 1.914 ± 0.0064 | 1.826 ± 0.0019 | 0.769 ± 0.068
AGGAGA | 0.176 ± 0.052 | 1.78 ± 0.049 | 1.28 ± 0.033 | 0.621 ± 0.034
CCUAUA | 0.827 ± 0.019 | 1.945 ± 0.016 | 1.83 ± 0.029 | 0.508 ± 0.074
AUGUUG | 0.146 ± 0.039 | 1.85 ± 0.024 | 1.44 ± 0.075 | 0.386 ± 0.071
UAAGGG | 0.3343 ± 0.00083 | 1.878 ± 0.013 | 1.4441 ± 0.0011 | 0.519 ± 0.015
UGUAGA | 0.133 ± 0.057 | 1.93 ± 0.043 | 1.55 ± 0.049 | 0.19 ± 0.011
UAGCAA | 0.0307 ± 0.043 | 1.9 ± 0.026 | 1.739 ± 0.0055 | 0.155 ± 0.024
CUAUUA | 0.569 ± 0.023 | 1.942 ± 0.019 | 1.85 ± 0.054 | 0.484 ± 0.053
GUCAAA | 0.456 ± 0.0096 | 1.91 ± 0.047 | 1.733 ± 0.0061 | 0.532 ± 0.0073
GUGGGA | -0.0656 ± 0.016 | 1.9229 ± 0.0017 | 1.68 ± 0.053 | 0.178 ± 0.067
GUGGGU | 0.152 ± 0.061 | 1.94 ± 0.021 | 1.79 ± 0.018 | 0.626 ± 0.031
GGCAGA | 0.082 ± 0.022 | 1.921 ± 0.0091 | 1.51 ± 0.065 | 0.449 ± 0.062
UUUAGG | 0.0978 ± 0.0074 | 1.9004 ± 0.0014 | 1.83 ± 0.0068 | 0.462 ± 0.026
AGUAAA | 0.625 ± 0.22 | 1.891 ± 0.011 | 1.73 ± 0.063 | 0.59 ± 0.032
CUGUCA | 0.49 ± 0.048 | 2 ± 0.058 | 1.86 ± 0.037 | 0.439 ± 0.09
UCGGGA | 0.091 ± 0.059 | 1.82 ± 0.078 | 1.23 ± 0.021 | 0.767 ± 0.094
GAAUCG | 0.14 ± 0.0063 | 1.84 ± 0.02 | 1.4 ± 0.053 | 0.439 ± 0.05
AACUAC | 0.621 ± 0.011 | 1.922 ± 0.014 | 1.841 ± 0.0075 | 0.653 ± 0.028
AACUAU | 0.469 ± 0.04 | 1.9 ± 0.041 | 1.787 ± 0.012 | 0.51 ± 0.053

Variant | FACS-Seq fitted mean (log10) (hypoxanthine [1]) | normalized RNA/DNA level with ligand (log10) (hypoxanthine [2]) | normalized RNA/DNA level without ligand (log10) (hypoxanthine [3]) | FACS-Seq fitted mean (log10) (hypoxanthine [4])
GCUACC | 0.407 ± 0.037 | 1.91 ± 0.07 | 1.76 ± 0.024 | 0.599 ± 0.028
AGCACG | 0.385 ± 0.023 | 1.87 ± 0.055 | 1.44 ± 0.085 | 0.609 ± 0.062
GGCAAU | -0.272 ± 0.047 | 1.92 ± 0.04 | 1.86 ± 0.024 | -0.0445 ± 0.018
UCACCA | 0.743 ± 0.044 | 1.93 ± 0.025 | 1.919 ± 0.0074 | 0.834 ± 0.076
CCCGGA | 0.102 ± 0.0056 | 1.97 ± 0.042 | 1.88 ± 0.036 | 0.0786 ± 0.0026
GGGACG | 0.352 ± 0.016 | 1.894 ± 0.014 | 1.51 ± 0.021 | 0.708 ± 0.031
UGCGCG | 0.142 ± 0.0059 | 1.94 ± 0.032 | 1.75 ± 0.035 | 0.383 ± 0.012
GGUAGG | -0.101 ± 0.028 | 1.69 ± 0.062 | 1.29 ± 0.041 | 0.5153 ± 0.001
GGAGUC | 0.764 ± 0.047 | 1.93 ± 0.042 | 1.885 ± 0.014 | 0.567 ± 0.047
CGCAAA | 0.57 ± 0.013 | 1.897 ± 0.0028 | 1.7 ± 0.022 | 0.491 ± 0.024
GUUUCC | 0.703 ± 0.042 | 1.95 ± 0.089 | 2.03 ± 0.06 | 0.641 ± 0.02
CCGACG | 0.527 ± 0.0072 | 1.9241 ± 0.0017 | 1.685 ± 0.0014 | 0.6331 ± 0.0049
GCGCGG | -0.388 ± 0.022 | 1.81 ± 0.072 | 1.3 ± 0.021 | 0.464 ± 0.018
GCUGAA | 0.332 ± 0.011 | 1.91 ± 0.032 | 1.76 ± 0.038 | 0.43 ± 0.092
ACGGAG | -0.0823 ± 0.0037 | 1.62 ± 0.031 | 1.12 ± 0.052 | 0.482 ± 0.12
CUAGUG | -0.00638 ± 0.00052 | 1.95 ± 0.1 | 1.85 ± 0.028 | 0.202 ± 0.017
UAAUCG | -0.0742 ± 0.028 | 1.93 ± 0.021 | 1.633 ± 0.014 | 0.247 ± 0.059
AGAAUG | -0.0981 ± 0.019 | 1.86 ± 0.034 | 1.42 ± 0.058 | -0.0321 ± 0.076
AGAACC | 0.228 ± 0.048 | 1.937 ± 0.014 | 1.87 ± 0.022 | 0.264 ± 0.055
AUCUUG | 0.269 ± 0.0029 | 1.846 ± 0.015 | 1.59 ± 0.039 | 0.48 ± 0.04
UGCUAU | 0.535 ± 0.025 | 1.93 ± 0.023 | 1.88 ± 0.028 | 0.662 ± 0.05
AAUUAA | 0.435 ± 0.032 | 1.893 ± 0.0034 | 1.764 ± 0.0032 | 0.276 ± 0.14
GCGACG | 0.442 ± 0.017 | 1.81 ± 0.021 | 1.3 ± 0.099 | 0.666 ± 0.035
GGGCCG | -0.0164 ± 0.068 | 1.98 ± 0.05 | 1.923 ± 0.0046 | 0.175 ± 0.031
